From US20260209362A1 (VIB VZW, published 2026)
Positions count from the first letter of the chain named.

T1: biotinylated recombinant human IL-12Rβ2 (human, UniProt Q99665 24-622, random biotinylated)
T1 construct: Recombinant protein produced in-house, biotinylated; also called hIL-12RB2; human IL-12RB2
T1 sequence: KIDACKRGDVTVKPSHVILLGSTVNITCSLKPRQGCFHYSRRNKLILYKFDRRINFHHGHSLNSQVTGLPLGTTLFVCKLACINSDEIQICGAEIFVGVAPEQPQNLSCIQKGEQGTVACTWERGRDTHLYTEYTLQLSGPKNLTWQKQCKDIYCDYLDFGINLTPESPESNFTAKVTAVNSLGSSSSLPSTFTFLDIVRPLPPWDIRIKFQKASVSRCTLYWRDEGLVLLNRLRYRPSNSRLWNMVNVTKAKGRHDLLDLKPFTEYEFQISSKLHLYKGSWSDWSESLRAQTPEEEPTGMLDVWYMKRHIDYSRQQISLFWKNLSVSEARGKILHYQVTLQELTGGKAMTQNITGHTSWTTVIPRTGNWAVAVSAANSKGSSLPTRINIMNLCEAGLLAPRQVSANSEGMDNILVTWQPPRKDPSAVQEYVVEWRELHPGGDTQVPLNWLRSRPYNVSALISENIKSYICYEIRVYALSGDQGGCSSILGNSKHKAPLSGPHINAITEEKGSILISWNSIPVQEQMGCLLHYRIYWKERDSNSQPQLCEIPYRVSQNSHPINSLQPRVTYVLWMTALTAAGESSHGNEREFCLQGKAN

T2: biotinylated recombinant mouse IL-12Rβ2 (mouse, UniProt P97378 24-637, random biotinylated)
T2 construct: Recombinant protein produced in-house, biotinylated; also called mIL-12RB2; mouse IL-12RB2
T2 sequence: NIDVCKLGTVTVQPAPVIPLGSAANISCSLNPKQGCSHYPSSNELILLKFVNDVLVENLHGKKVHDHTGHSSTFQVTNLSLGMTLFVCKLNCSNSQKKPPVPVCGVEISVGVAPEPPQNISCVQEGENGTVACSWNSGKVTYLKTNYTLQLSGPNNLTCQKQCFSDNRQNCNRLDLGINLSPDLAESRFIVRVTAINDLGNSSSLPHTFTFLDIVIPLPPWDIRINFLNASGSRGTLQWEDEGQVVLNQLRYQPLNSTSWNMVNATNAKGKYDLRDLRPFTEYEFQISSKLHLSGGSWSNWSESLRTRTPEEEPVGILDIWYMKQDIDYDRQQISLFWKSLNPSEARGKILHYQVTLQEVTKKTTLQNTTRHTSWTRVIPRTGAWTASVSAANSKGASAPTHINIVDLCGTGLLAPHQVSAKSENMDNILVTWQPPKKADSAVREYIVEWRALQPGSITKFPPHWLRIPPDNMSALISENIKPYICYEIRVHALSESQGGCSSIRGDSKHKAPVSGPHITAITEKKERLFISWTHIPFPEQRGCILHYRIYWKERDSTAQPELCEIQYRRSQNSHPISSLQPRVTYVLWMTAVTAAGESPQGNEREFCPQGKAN

B1: anti-IL-12Rβ2 VHH clone 21058 (VHH, not shown: small tags and cut ends)
VHH: QVQLQESGGGLVQAGGSLRLSCAASGRTFSNYAMAWFRQAPGTEREFVAGLSGSGGDTAFYDNSVMGRFTISRDSAKNTMWLQINNLKPEDTAVYYCAAATHVVVSYGLVRRRGTYDYWGQGTQVTVSS
notes: tested as periplasmic extract; also called 3CRHM49
B2: anti-IL-12Rβ2 VHH clone 21053 (VHH, not shown: small tags and cut ends)
VHH: B1 VHH with A59E, N63D, M66K, T70A, M80V, I84M, N86S, S106H
notes: tested as periplasmic extract; also called 3CRHM14
B3: anti-IL-12Rβ2 VHH clone 21057 (VHH, not shown: small tags and cut ends)
VHH: B1 VHH with S106N
notes: tested as periplasmic extract; also called 3CRHM35
B4: anti-IL-12Rβ2 VHH clone 21054 (VHH, not shown: small tags and cut ends)
VHH: B1 VHH with A14D, R112K
notes: tested as periplasmic extract; also called 3CRHM18
B5: anti-IL-12Rβ2 VHH clone 21064 (VHH, not shown: small tags and cut ends)
VHH: B1 VHH with A14P
notes: tested as periplasmic extract; also called 3CRHM200
B6: anti-IL-12Rβ2 VHH clone 21055 (VHH, not shown: small tags and cut ends)
VHH: QVQLQESGGGLVQAGGSLRLSCAASGRTFSKSTMGWFRQTPGKEREFVAAITWTDTEVYANSVKDRFTISRDNAKNTFYLQMHSLKLEDTAVYYCAGDRYGSSRDSVFSSPTNYPYWGQGTQVTVSS
notes: tested as periplasmic extract; also called 3CRHM20
B7: anti-IL-12Rβ2 VHH clone 21060 (VHH, not shown: small tags and cut ends)
VHH: QVQLQESGGGLVQAGGSLSLSCAASGSAFRLNFMGWYRQAPGKQRELVAAINSGGTEIYHDSVKGRFTISRDNADSTVWLQMNSLKPDDTAVYYCAADRGISWSKLAGGMDYWGKGTQVTVSS
notes: tested as periplasmic extract; also called 3CRHM73
B8: anti-IL-12Rβ2 VHH clone 21062 (VHH, not shown: small tags and cut ends)
VHH: QVQLQESGGGLVQPGGSLRLSCAASGISSSRLHVGWFRQSPGKEREFVAAISLSGGTQAYTDSVKGRFTISGDNVKNTAYLQMNSLRPEDTAVYYCAARERFIWTWSDLTYDYWGQGTQVTVSS
notes: tested as periplasmic extract; also called 3CRHM99
B9: anti-IL-12Rβ2 VHH clone 21052 (VHH, not shown: small tags and cut ends)
VHH: QVQLQESGGGSVQAGGSLRLSCAVSGRTVSDYAMGWFRQAPGKEREFVAAMSSSETTVYPNSVKGRITISRDNAKNAVYLQMNALKPEDTAVYYCSMGPIVTFQGLARQNEYHYWGQGTQVTVSS
notes: tested as periplasmic extract; also called 3CRHM12
B10: anti-IL-12Rβ2 VHH clone 21063 (VHH, not shown: small tags and cut ends)
VHH: B9 VHH with T28P, M51L, S53A, E55D, Y79D, S96A, V101G
notes: tested as periplasmic extract; also called 3CRHM133
B11: anti-IL-12Rβ2 VHH clone 21065 (VHH, not shown: small tags and cut ends)
VHH: B9 VHH with A49V, P60T, V101T
notes: tested as periplasmic extract; also called 3CRHM240
B12: anti-IL-12Rβ2 VHH clone 21051 (VHH, not shown: small tags and cut ends)
VHH: B9 VHH with V63M, M82L, V101A
notes: tested as periplasmic extract; also called 3CAHM40
B13: anti-IL-12Rβ2 VHH clone 21061 (VHH, not shown: small tags and cut ends)
VHH: QVQLQESGGGLVQPGGSLRLSCAASRRTFSKHAMAWFRQAPGKEREFVAVVRWSGIITYYADSVKGRFTISRDDAKNTVYLQMDSLKPEDTAVYYCAAGDYRGNGYYVPGMYDYWGQGTQVTVSS
notes: tested as periplasmic extract; also called 3CRHM85

molecular target: CD20 (human) (UniProt P11836); experiment: not given
Sequence (P11836 whole entry): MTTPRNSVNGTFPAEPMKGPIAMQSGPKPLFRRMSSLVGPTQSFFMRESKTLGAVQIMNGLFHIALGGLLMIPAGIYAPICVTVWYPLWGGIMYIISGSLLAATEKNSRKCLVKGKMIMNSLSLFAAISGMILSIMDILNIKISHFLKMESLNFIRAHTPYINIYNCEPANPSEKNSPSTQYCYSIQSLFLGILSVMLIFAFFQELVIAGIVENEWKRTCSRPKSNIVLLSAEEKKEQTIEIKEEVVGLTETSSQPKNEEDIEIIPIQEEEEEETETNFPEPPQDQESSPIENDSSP

% Specific Cell Lysis at 0.00125 ug/mL [%] | % Specific Cell Lysis at 0.025 ug/mL [%] | % Specific Cell Lysis at 0.5 ug/mL [%] | % Specific Cell Lysis at 10 ug/mL [%] | Molecule
52.4 | 64.7 | 75.6 | 77.5 | Rituximab (antibody)

molecular target: human IL-12Rβ2 expressed on cells (human) (UniProt Q99665); experiment: not given

% Specific Cell Lysis at 0.00125 ug/mL [%] | % Specific Cell Lysis at 0.025 ug/mL [%] | % Specific Cell Lysis at 0.5 ug/mL [%] | % Specific Cell Lysis at 10 ug/mL [%] | Molecule
47.5 | 50.4 | 48.7 | 44.6 | IgG1 (antibody)

molecular target: T1, biotinylated recombinant human IL-12Rβ2; experiment: BLI (Octet), periplasmic extract on biotinylated hIL-12Rβ2 on streptavidin tips

Response | Molecule
1.54 | B1
1.19 | B2
1.36 | B3
1.14 | B4
1.38 | B5
1.18 | B6
1.45 | B7
1.45 | B8
1.32 | B9
1.13 | B10
1.5 | B11
1.32 | B12
1.32 | B13

molecular target: T2, biotinylated recombinant mouse IL-12Rβ2; experiment: BLI (Octet), periplasmic extract on biotinylated mIL-12Rβ2 on streptavidin tips

Response | Molecule
1.15 | B1
0.957 | B2
1.04 | B3
0.699 | B4
1.01 | B5
0.586 | B6
0.944 | B7
0.812 | B8
0.837 | B9
0.97 | B10
1.05 | B11
0.809 | B12
0.816 | B13

molecular target: T1, biotinylated recombinant human IL-12Rβ2; experiment: ELISA, periplasmic extract on biotinylated hIL-12Rβ2, signal over control wells

ELISA binding hIL-12RB2/control [ratio] | Molecule
3.2 | B1
3.11 | B2
4.84 | B3
3.61 | B4
3.58 | B5
8.23 | B6
6.9 | B7
4.24 | B8
7.28 | B9
3.46 | B10
3.78 | B11
3.73 | B12
3.52 | B13

molecular target: T2, biotinylated recombinant mouse IL-12Rβ2; experiment: ELISA, periplasmic extract on biotinylated mIL-12Rβ2, signal over control wells

ELISA binding mIL-12RB2/control [ratio] | Molecule
41.2 | B1
25.1 | B2
35.5 | B3
45 | B4
5.37 | B5
20.2 | B6
26.3 | B7
5.24 | B8
38.3 | B9
3.92 | B10
5.72 | B11
11.9 | B12
8 | B13

molecular target: T1, biotinylated recombinant human IL-12Rβ2; experiment: BLI (Octet), periplasmic extract on biotinylated hIL-12Rβ2 on streptavidin tips, 1:1 model

koff [s⁻¹] | Molecule
0.00619 | B1
0.00532 | B2
0.00576 | B3
0.00548 | B4
0.00571 | B5
0.00486 | B6
0.00605 | B7
0.00634 | B8
0.00547 | B9
0.00389 | B10
0.00457 | B11
0.00578 | B12
0.00343 | B13

molecular target: T2, biotinylated recombinant mouse IL-12Rβ2; experiment: BLI (Octet), periplasmic extract on biotinylated mIL-12Rβ2 on streptavidin tips, 1:1 model

koff [s⁻¹] | Molecule
0.00583 | B1
0.00483 | B2
0.00535 | B3
0.00618 | B4
0.00546 | B5
0.0059 | B6
0.00605 | B7
0.00671 | B8
0.00599 | B9
0.00667 | B10
0.00483 | B11
0.00644 | B12
0.00474 | B13
